The values below come from PMC4523205, “Human Non-neutralizing HIV-1 Envelope Monoclonal Antibodies Limit the Number of Founder Viruses during SHIV Mucosal Infection in Rhesus Macaques” (PLoS Pathogens, 2015).

The target in the assay is T1, Env of SHIV-SF162P3, on virions (SHIV-SF162P3, env from HIV-1 SF162 …, UniProt P19550, strain).
T1 construct: HIV-1 SF162-derived envelope glycoprotein (gp120/gp41) of SHIV-SF162P3, as it stands on virus particles; source: virus stock
The assay is described as follows: infectious virus capture assay (plate based); antibody mixed with viral stock, immune complexes held on plates coated with anti-human IgG, captured infectious virus read with indicator cells (RLU). The conditions noted are these: one partner purified.

B1: 7B2 IgG1_AAA (antibody, V domains shown)
VH: QVQLVQSGGGVFKPGGSLRLSCEASGFTFTEYYMTWVRQAPGKGLEWLAYISKNGEYSKYSPSSNGRFTISRDNAKNSVFLQLDRLSADDTAVYYCARADGLTYFSELLQYIFDLWGQGARVTVSS
VL: DIVLAQSPDSLAVSPGERATIHCKSSQTLLYSSNNRHSIAWYQQRPGQPPKLLLYWASMRLSGVPDRFSGSGSGTDFTLTINNLQAEDVAIYYCHQYSSHPPTFGHGTRVELR
notes: variable region as in the heavy chain of m1 (PDB 4YDV, heavy chain); as the light chain of m1 (PDB 4YDV, light chain); IgG1 with the Fc changes S298A, E333A, K334A; also called 7B2_AAA; source: CHO cells (Catalent, Somerset, NJ), recombinant; copies: 2 + 2
Consider B1, for which the binding result was “binds”.
